Test results from patent US20140314667A1, “METHODS OF TREATING EPIDERMAL GROWTH FACTOR DELETION MUTANT VIII RELATED DISORDERS” (AMGEN INC., priority 2011, published 2014).
Where a chain is given by its changes, count along the chain named.

T1: OVA (Gallus gallus, UniProt P01012)
T1 sequence (P01012 1-386): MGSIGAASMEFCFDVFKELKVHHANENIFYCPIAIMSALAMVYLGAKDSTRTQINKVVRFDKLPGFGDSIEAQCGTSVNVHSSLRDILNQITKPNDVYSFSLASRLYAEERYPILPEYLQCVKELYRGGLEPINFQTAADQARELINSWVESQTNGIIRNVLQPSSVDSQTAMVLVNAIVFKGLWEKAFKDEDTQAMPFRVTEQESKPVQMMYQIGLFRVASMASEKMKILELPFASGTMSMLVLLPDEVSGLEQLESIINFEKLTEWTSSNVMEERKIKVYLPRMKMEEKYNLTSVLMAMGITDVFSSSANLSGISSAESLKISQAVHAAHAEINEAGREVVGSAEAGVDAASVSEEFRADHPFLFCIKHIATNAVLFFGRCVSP

B1: 095: XenoMax derived anti-EGFRvIII antibody, SEQ ID NO: 7/23 (antibody, listed as Homo sapiens, V domains shown)
VH: QVQLQESGPFLVKPSQTLSLTCTVSGGSISSGGYYWSWIRQHPGKGLEWIGFIYYRGNTYYNPSLKSRVTISVDTSKNQFSLKLSSVTAADTAVYYCARDGYCSRTGCYGGWFDPWGQGTLVTVSP
VL: DIVMTQTPLSSPVTLGQPASISCRSSQSLIHTDGNIYLSWLQQRPGQPPRLLIYKISNRFSGVPDRFSGSGAGTDFTLKISRVEAEDVGVYYCMQGTQFPITFGQGTRLEIK
B2: 333: XenoMax derived anti-EGFRvIII antibody, SEQ ID NO: 17/32 (antibody, listed as Homo sapiens, V domains shown)
VH: QVQLVESGGGVVQPGRSLRLSCVASGFTLSSYGMHWVRQALGKGLEWVAVTSYDGSKKDYADSVKGRFTISRDNSKNTLYLQMNSLRAEDTAVYYCVSEGYCDSTSCYKYYYYGMDVWGQGTTVTVSS
VL: DIVMTQSPLSLPVTPGEPASISCRSSQSLLYRNGNNYLDWYLQRPGQSPQLLIYLGSNRASGVPDRFSGSGSGTDFTLKISRVEAEDVGVYYCMQALQTPRTFGQGTKVEIK
B3: 129A7: XenoMax derived anti-EGFRvIII antibody, heavy chain of 124 (SEQ ID NO: 13), light chain of 123 (SEQ ID NO: 29) (antibody, listed as Homo sapiens, V domains shown)
VH: B2 VH with V23A, L41P, T51M, K58E, K76E, D103S, T105R
VL: B2 VL with R44K, K79N, V90H
B4: 139: XenoMax derived anti-EGFRvIII antibody, SEQ ID NO: 10/25 (antibody, listed as Homo sapiens, V domains shown)
VH: EVQVLESGGGLVQPGGSLRLSCAASGFTFSSYAMSWVRQAPGKGLEWVSAISGSGGSTNYADSVKGRFTISRDNSKNTLYLQMNSLRAEDTAVYYCAGSSGWSEYWGQGTLVTVSS
VL: DIQMTQSPSSLSASVGDRVTITCRASQGIRNNLAWYQQKPGKAPKRLIYAASNLQSGVPSRFTGSGSGTEFTLIVSSLQPEDFATYYCLQHHSYPLTSGGGTKVEIK
B5: 250: XenoMax derived anti-EGFRvIII antibody, SEQ ID NO: 9/26 (antibody, listed as Homo sapiens, V domains shown)
VH: B4 VH with V2G, V4L, L11W, G16E, M83V, A88V
VL: DIQMTQSPSSLSASVGDSVTITCRTSQGIRKNLGWYQQKPGKAPKRLIYAASSLQSGVPSRFSGSGSGTEFTLTISRLQPEDFATYYCLQHHSYPLTFGGGTRVEIR

What was measured:
[1] = target: T2, NR6 Wt cells (NR6 cells expressing EGF receptor) (Homo sapiens, UniProt P00533); assay: Native cell binding assay by FMAT, NR6 Wt cells; details: for cross-reactivity with wild type EGFR: XenoMax approach, in words; for FMAT native binding to NR6 Wt cells: total fluorescent intensity
T2 construct: expressed in transfected cells; host or cells: NR6 cells (NR6 Wt)
Description: The same type of native binding assay was done on NR6 Wt cells (NR6 cells expressing EGF receptor) (See Batra et al. Epidermal growth factor ligand-independent, unregulated, cell-transforming potential of a naturally occurring human mutant EGFRvIII gene. Cell Growth Differ. 6(10):1251-9 (1995)) to eliminate the binding is due to binding to Wt receptor (Table 3.8). ABX-EGF was used as a positive control and PK 16.3.1 at the same concentration was used as a negative control antibody. 3 out the 134 NR6 M binders were binding strongly to NR6 Wt cells. 190 of the 244 wells bound EGFRvIII peptide in Elisa were also bound to the native form on cells.
In this example, binding of anti-EGFRvIII antibodies to NR6 M cells was measured. Specifically, unquantitated supernatants of XenoMax derived IgG1 recombinant antibodies were assayed for their ability to bind to NR6 M and NR6 WT cells. Cells were seeded at 10000/well and incubated overnight at 37 C in FMAT 96 well plates. Media was removed and 40 μl mini lipo supernatant (titrated down) was added, the cells were incubated on ice for 1 hr. […] The PK 16.3.1 antibody was used as a negative control. The cells were washed with Cold PBS, secondary antibody was added (SS Alexa antihuman IgG Fc) at 1 μg/ml, 40 μl/well and incubated on ice for 1 hr. The cells were then washed with Cold PBS and fixed and read by FMAT. All antibodies were tested for specificity for binding by counter screening against NR6 WT cells.

EGFRvIII-peptide-OVA = target: T3, EGFRvIII-peptide-OVA (Homo sapiens, UniProt P00533, DELINS30-297G); assay: B-cell culture supernatant ELISA on EGFRvIII-peptide-OVA; type: binding; details: for binding with the pep3: XenoMax approach, in words; for 1′ VIII-pep-OVA OD / 2′ VIII-pep-OVA OD: Table 3.8
T3 construct: 207 μg of EGFRvIII PEP3 was reduced; host or cells: synthetic peptide, chemical conjugation
Experimental: B-cells from the above-discussed animals were harvested and cultured. Those secreting EGFRvIII-peptide specific antibodies were isolated as described in Babcook et al., Proc. Natl. Acad. Sci. USA, 93:7843-7848 (1996). ELISA was used to identify primary EGFRvIII-peptide-OVA-specific wells. About 5 million B-cells were cultured from XenoMouse animals in 24596 well plates at 500 or 150 or 50 cells/well, and were screened on EGFRvIII-peptide-OVA to identify the antigen-specific wells.
(§1) 244 of EGFRvIII-peptide-OVA-Elisa positive wells of OD >0.5 were screened again on EGFRvIII-peptide-OVA and on OVA to confirm that they were EGFRvIII-peptide specific.

[2] = target: T4, EGFRvIII receptor in NR6 M cells (Homo sapiens, UniProt P00533, DELINS30-297G); assay: Internalization of EGFRvIII receptor by recombinant mAbs (FACS); type: cell-based; details: 0.25 μg/ml antibody, 1 hr
T4 construct: NR6 M cells stably expressing full length EGFRvIII; expressed in transfected cells; host or cells: NR6 cells (NR6 M)
Experimental: XenoMax derived IgG1 recombinant antibodies were expressed, purified and quantitated as described previously. Antibodies were further assayed for their ability to internalize the EGFRvIII receptor in NR6 M cells. […] The cells were washed with cold 10% FCS in PBS and secondary antibody (SS Alexa antihuman IgG Fab) at 3 μg/ml Fab was added and incubated for 7 mins on ice. The cells were washed with cold 10% FCS in PBS once and then resuspended in cold media. Next, two sets of the triplicate were incubated at 37° C. and the remaining set was incubated at 4° C. for 1 hr. After that the cells incubated at 4° C. and one set of the cells incubated at 37° C. were treated with glutathione (as previously mentioned) for 1 hr on ice. Then the cells were washed and resuspended in 100 μl of cold 1% FCS in PBS and analyzed by FACS. The % internalization was calculated from the geometric mean obtained from the FACS analysis [(mean at 37° C. with glutathione−mean at 4° C. with glutathione)/(mean at 37° C. without glutathione−mean at 4 C with glutathione)].

[3] = target: T5, EGFRvIII receptor on NR6 M cells (Homo sapiens, UniProt P00533, DELINS30-297G); assay: Internalization assay (FMAT, glutathione) of B cell culture supernatants; type: cell-based; details: for % internalized, (glut+/glut−) × 100 / With glutathione FL1xcount: 37° C. for 30 mins; for With glutathione FL1xcount: 50 mM glutathione; for No glutathione FL1xcount: kept on ice
T5 construct: NR6 M cells stably expressing full length EGFRvIII; expressed in transfected cells; host or cells: NR6 cells (NR6 M)
Experimental: The top 60 native binding B cell culture supernatants were further assayed for their ability to internalize the receptor. NR6 M cells were seeded at 8000 cells/well into 96 well FMAT plates and incubated overnight. Media was removed and 10-15 μl B-Cell culture supernatant in a total volume of 30 μl media, in duplicate was added. Next, 15 μl of secondary antibody (SS Alexa 647 anti-human IgG Fab at 1.5 μg/ml final concentration) was added and the mixture was incubated on ice for 1 hr. An irrelevant B-Cell Culture supernatant was used to see the effect of the culture media. Human anti-EGFRvIII mAb 13.2.1 was used as a positive control starting at 1 μg/ml (final concentration) and negative control was PK 16.3.1 (human anti-KLH IgG2 antibody) at the same concentration. After incubation, the cells were washed with cold PBS, 50 μl media was added to all of the wells, one of the duplicates were incubated at 37° C. for 30 mins while the other duplicate remained on ice. After the incubations media was removed, 100 ul of cold 50 mM glutathione was added to the set incubated at 37° C. and 100 μl of cold media added to the other set, both sets were then left on ice for 1 hr. The cells were then washed with 100 μl cold PBS and then fixed with 1% paraformaldehyde and read in FMAT. The results were expressed as % internalized, calculated as total fluorescence in the presence of glutathione/total fluorescence in the absence of glutathione×100.

[4] = target: T6, native form of EGFRvIII stably expressed on NR6 cells (NR6 M cells) (Homo sapiens, UniProt P00533, DELINS30-297G); assay: Native cell binding assay by FMAT, NR6 M cells; details: total fluorescent intensity
T6 construct: NR6 M cells stably expressing full length EGFRvIII; expressed in transfected cells; host or cells: NR6 cells (NR6 M)
Experimental: EGFRvIII peptide-OVA-Elisa positive well supernatants were analyzed for their ability to bind to the native form of EGFRvIII stably expressed on NR6 cells (NR6 M cells) (See, Batra et al. Epidermal growth factor ligand-independent, unregulated, cell-transforming potential of a naturally occurring human mutant EGFRvIII gene. Cell Growth Differ. 6(10):1251-9 (1995)). NR 6 M cells were seeded at 8000 cells per well and incubated over night in 96 well FMAT plates. Media was then removed leaving 15 μl in the well. 15 μl B-cell culture supernatants were added and 15 μl anti-human IgG Fc Cy5 at 1 μg/ml final concentration added to wells. It is then left incubated at 4° C. for 2 hours. The cells were washed with 150 μl PBS, and fixed before reading on FMAT. The results were expressed as total fluorescent intensity (Table 3.8).

OVA = target: T1, OVA; assay: B-cell culture supernatant ELISA on OVA (specificity control); type: binding; details: Table 3.8
Description: as §1

[5] = target: T7, EGFRvIII expressing cells (H1477) (Homo sapiens, UniProt P00533, DELINS30-297G); assay: Selectivity for EGFRvIII expressing cells compared to ABX-EGF; type: binding
T7 construct: host or cells: H1477 cells

Molecule | cross-reactivity with wild type EGFR [1] | binding with the pep3 (EGFRvIII-peptide-OVA) | FACS Geometric mean With glutathione 4° C. [2] | FACS Geometric mean With glutathione 37° C. [2] | FMAT native binding to NR6 Wt cells [1] | 1′ VIII-pep-OVA OD (EGFRvIII-peptide-OVA) | 2′ VIII-pep-OVA OD (EGFRvIII-peptide-OVA) | % internalized, (glut+/glut−) × 100 [3] [%] | With glutathione FL1xcount [3] | No glutathione FL1xcount [3] | FMAT native binding to NR6 M cells [4] | OVA OD (OVA) | selectivity for EGFRvIII expressing cells (H1477) as compared to ABX-EGF [5]
B1 | limited cross-reactivity with wild type EGFR | highly specific | 5.13 | 17.75 | – | – | – | – | – | – | – | – | –
B2 | – | – | – | – | 0 | 0.8555 | 1.2070 | 37.1 | 13293 | 35820 | 109379 | 0.1649 | –
B3 | – | – | – | – | 0 | 2.1501 | 2.8208 | 31.5 | 8708 | 27648 | 84024 | 0.1515 | –
B4 | limited cross-reactivity with wild type EGFR | highly specific | 4.88 | 19.23 | – | – | – | – | – | – | – | – | superior selectivity
B5 | limited cross-reactivity with wild type EGFR | highly specific | 4.84 | 8.07 | – | – | – | – | – | – | – | – | –
